{"source": "paper PMC5329690", "about": "“A Synthetic Strategy for Conjugation of Paromomycin to Cell-Penetrating Tat(48-60) for Delivery and Visualization into Leishmania Parasites” (International Journal of Peptides, 2017)", "test_system": "Leishmania donovani promastigotes", "test": "Intracellular uptake by confocal fluorescence microscopy", "type": "cell-based", "conditions": "L. donovani promastigotes strain MHOM/SD/00/1S-2D, 2 × 10^7 cells/mL in HBSS-Glc; 9 μM conjugate, 4 h, 26°C; washed, DAPI 5 μg/mL, unfixed; confocal fluorescence λex 488 nm/λem 520 nm; representative of two other independent experiments", "protocol": "Leishmania donovani promastigotes (strain MHOM/SD/00/1S-2D) were resuspended in Hanks' medium supplemented with 10 mM D-glucose (HBSS-Glc) at 2 × 10^7 cells/mL. Afterwards, 9 μM Bodi Fluor 488-labeled PMM-Tat conjugate 6 was added to the parasite suspension and incubated for 4 h in HBSS-Glc. After incubation, non-incorporated 6 was removed by washing the cells with HBSS-Glc. Finally, cells were labeled with DAPI (5 μg/mL, 20 min) before their observation, unfixed, in a Leica TCS–SP2 ABOS confocal laser scanning microscope.\nFigure 3 Fluorescence of Leishmania donovani promastigotes incubated with Bodi Fluor 488-labeled PMM-Tat conjugate (9 μM, 4 h, 26°C) and stained with DAPI (5 μg/mL) immediately before observation, unfixed. Settings: conjugate (green, λex = 488 nm/λem = 520 nm); DAPI (blue, λex = 350 nm/λem = 460 nm). Bar = 20 μm. Experiment is representative of two other ones performed independently.\n4. Parasite culture and confocal microscopy\nLeishmania donovani promastigotes (strain MHOM/SD/00/1S-2D) were resuspended in Hanks’ medium supplemented with 10 mM D-glucose (HBSS-Glc) at 2 × 10^7 cells/mL.\nAfterwards, 9 µM BodiFluor™ 488-labeled PMM-Tat conjugate was added to the parasite suspension and incubated for 4 h in HBSS-Glc. After incubation, non-incorporated conjugate was removed by washing the cells with HBSS-Glc. […]"}
{"substance": "Bodi Fluor-O2Oc-Tat(48-60)-O2Oc-Asp(paromomycin)-amide [compound 6]", "values": [{"measurement": "intracellular uptake (internalization and cellular pattern)", "result": "can enter the parasite, with a diffuse pattern in all the cytoplasm"}]}
